Assays:
[1] = target: CXCR4 mutation library clone 2184 (P191T) (human, UniProt P61073 1-352); test: immunofluorescence on HEK-293T expressing the clone, normalised to wild type
[2] = target: CXCR4 mutation library clone 1129 (F189V) (human, UniProt P61073 1-352); test: as above
[3] = target: T1, CXCR4 mutation library clone 3728 (D187A, Y157C) (human, UniProt P61073 1-352); test: as above
T1 chain: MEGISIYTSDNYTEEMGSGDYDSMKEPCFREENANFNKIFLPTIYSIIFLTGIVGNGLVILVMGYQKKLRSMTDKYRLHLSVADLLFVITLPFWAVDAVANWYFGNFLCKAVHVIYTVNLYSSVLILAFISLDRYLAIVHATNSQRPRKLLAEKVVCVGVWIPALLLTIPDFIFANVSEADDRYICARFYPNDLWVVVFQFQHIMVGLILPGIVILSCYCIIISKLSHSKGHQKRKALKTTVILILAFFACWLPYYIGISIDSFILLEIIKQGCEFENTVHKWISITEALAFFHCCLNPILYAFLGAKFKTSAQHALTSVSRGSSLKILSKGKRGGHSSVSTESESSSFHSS

[4] = target: CXCR4 mutation library clone 2270 (V196E) (human, UniProt P61073 1-352); test: as above
[5] = target: T2, CXCR4 mutation library clone 1057 (K230E, S178R) (human, UniProt P61073 1-352); test: as above
T2 chain: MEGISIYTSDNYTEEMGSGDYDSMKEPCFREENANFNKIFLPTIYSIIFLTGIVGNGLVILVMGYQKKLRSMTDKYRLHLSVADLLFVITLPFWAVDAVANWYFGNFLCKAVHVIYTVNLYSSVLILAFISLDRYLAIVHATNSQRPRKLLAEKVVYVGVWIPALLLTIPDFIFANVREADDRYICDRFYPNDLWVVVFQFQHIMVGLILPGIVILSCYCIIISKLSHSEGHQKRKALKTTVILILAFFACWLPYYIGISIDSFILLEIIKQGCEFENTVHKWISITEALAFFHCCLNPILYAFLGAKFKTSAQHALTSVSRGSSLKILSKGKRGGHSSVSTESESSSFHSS

[6] = target: CXCR4 mutation library clone 2084 (D187V) (human, UniProt P61073 1-352); test: as above
[7] = target: T3, CXCR4 mutation library clone 414 (C218R, E179V, S351T) (human, UniProt P61073 1-352); test: as above
T3 chain: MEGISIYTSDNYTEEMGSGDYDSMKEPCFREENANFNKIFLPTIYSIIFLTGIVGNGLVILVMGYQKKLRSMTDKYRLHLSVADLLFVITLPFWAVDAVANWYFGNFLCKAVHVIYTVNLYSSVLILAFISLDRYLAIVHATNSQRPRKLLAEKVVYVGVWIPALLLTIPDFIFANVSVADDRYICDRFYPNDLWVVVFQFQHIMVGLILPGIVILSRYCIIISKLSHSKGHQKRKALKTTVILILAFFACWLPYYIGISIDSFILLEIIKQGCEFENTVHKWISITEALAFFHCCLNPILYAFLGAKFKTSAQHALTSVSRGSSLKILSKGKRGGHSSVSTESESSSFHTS

[8] = target: T4, CXCR4 mutation library clone 185 (E277A, I245V, N298S) (human, UniProt P61073 1-352); test: as above
T4 chain: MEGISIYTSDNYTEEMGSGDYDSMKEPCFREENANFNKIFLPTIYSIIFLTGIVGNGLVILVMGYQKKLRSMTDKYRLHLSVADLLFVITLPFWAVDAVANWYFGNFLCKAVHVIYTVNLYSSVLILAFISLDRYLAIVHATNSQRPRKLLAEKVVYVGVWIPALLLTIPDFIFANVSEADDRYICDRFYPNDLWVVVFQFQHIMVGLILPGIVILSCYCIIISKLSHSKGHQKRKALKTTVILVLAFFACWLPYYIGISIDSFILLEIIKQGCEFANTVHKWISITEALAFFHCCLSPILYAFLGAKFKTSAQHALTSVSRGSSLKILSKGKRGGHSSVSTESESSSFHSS

[9] = target: all CXCR4 library clones containing a mutation at S178; test: immunofluorescence, average over all clones with a mutation at S178
[10] = target: T5, CXCR4 mutation library (Human CXCR4-short) (Homo sapiens, UniProt P61073, E179V/G258E); test: Shotgun mutagenesis epitope mapping, immunofluorescence on CXCR4 mutation library in HEK-293T; format: binding; conditions: residue E179; mutations E179V, G258E; normalized to wild type; 3 experiments (+/−range)
T5 construct: expressed in transfected cells; host or cells: HEK-293T, transient, 384-well
T5 sequence (P61073 whole entry E179V/G258E): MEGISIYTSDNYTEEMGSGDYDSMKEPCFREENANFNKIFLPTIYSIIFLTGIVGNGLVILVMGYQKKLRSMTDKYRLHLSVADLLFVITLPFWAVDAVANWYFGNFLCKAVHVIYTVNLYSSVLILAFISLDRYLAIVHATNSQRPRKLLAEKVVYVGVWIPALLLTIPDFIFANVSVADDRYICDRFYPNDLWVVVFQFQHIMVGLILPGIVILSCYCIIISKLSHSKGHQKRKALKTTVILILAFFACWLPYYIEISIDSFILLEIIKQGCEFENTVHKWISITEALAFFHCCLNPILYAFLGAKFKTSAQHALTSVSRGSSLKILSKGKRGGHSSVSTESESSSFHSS
Text: Method: See e.g. Willis, et al. 2008. Virus-like particles as quantitative probes of membrane protein interactions. Biochemistry 47:6988-6990. In short, the method comprises the following steps:
Create comprehensive mutation library • Start with a cDNA in eukaryotic expression plasmid • Create library where every amino acid is individually mutated
Express each clone within living cells in 384-well microplates
Detect structure and/or function of proteins
• Parental plasmid: Human CXCR4-short (SEQ ID NO: 6, 352 amino acids) • Epitope tags: N-terminal Flag (to detect surface expression), C-terminal V5 (to detect full-length translation) • Cell types used for immunofluorescence assays: HEK-293T
The immunofluorescence assay conditions (to detect binding) were optimized for the nanbodies to be tested. In short, 384-well immunofluorescence (IF) assay using HEK-293T cells transiently was transfected with different concentrations of CXCR4 DNA. The plate was first incubated with different concentrations of either Nanobody 238D2 or 238D4, then with 9E10, and finally with Cy3. The commercially-available anti-CXCR4 MAb 12G5 was used as an IF control.
Mapping Nanobody Binding to CXCR4 Mutation Library: The entire library was screened in triplicate with each Nanobody. The data was background-subtracted and normalized to wild type reactivity and averaged across the repeats. Nanobody binding was plotted as a function of average surface expression, and measured by immunoreactivity of an N-terminal Flag epitope tag. Thresholds of 60% Flag and 30% Nanobody were used to identify critical clones. Using standard IF conditions, we identified 1 critical residue (2 critical clones). Using increased stringency assay conditions (high salt), we identified 5 additional residues (Tables C-3 and C-4).

B1: Nanobody 238D4 (VHH)
VHH: EVQLMESGGGLVQAGGSLRLSCAASGRTFNNYAMGWFRRAPGKEREFVAAITRSGVRSGVSAIYGDSVKDRFTISRDNAKNTLYLQMNSLKPEDTAVYTCAASAIGSGALRRFEYDYSGQGTQVTVSS
Which results are given for B1?
% immunofluorescence [1]: 124%; % immunofluorescence [2]: 5.2%; % immunofluorescence [3]: -16.4%; % immunofluorescence [4]: 94%; % immunofluorescence [5]: 11.4%; % immunofluorescence [6]: -8%; % immunofluorescence [7]: 8%; % immunofluorescence [8]: 69.3%; average nanobody reactivity [9]: 23.2%

B2: 238D2: monovalent anti CXCR4 Nanobody, SEQ ID NO: 2 (protein)
VHH: EVQLVESGGGLVQTGGSLRLSCAASGFTFSSYAMSWVRQAPGKGLEWVSGIKSSGDSTRYAGSVKGRFTISRDNAKNMLYLQMYSLKPEDTAVYYCAKSRVSRTGLYTYDNRGQGTQVTVSS
modifications: Nanobody
B2 was tested. Which “% immunofluoresence, clone 2834” value [10] did it give?
Its value is 84.6 (7.8) %.

Reference: patent US20110117113A1, “IMMUNOGLOBULIN SINGLE VARIABLE DOMAIN DIRECTED AGAINST HUMAN CXCR4 AND OTHER CELL ASSOCIATED PROTEINS AND METHODS TO GENERATE THEM” (priority 2009, published 2011)
